The record followed here is US10006080B2, “High-selectivity contact activation inhibitor based on infestin-4” (OBSCHESTVO S OGRANICHENNOY OTVETSTVENNOSTYU …, priority 2013, dated 2018).

Assay [1] concerns contact activation. The assay is described as follows: Thrombodynamics analyzer T-2, artifact clots far from the TF activator in normal frozen-thawed PFP. It is filed as biochemical, human. To be noted: MutB 20 μM, CTI 15 μM; for cuvette area occupied by artifact clots far from the activator: 30 minutes after activation, whole cuvette area without inhibitor; for suppression of contact activation, formation of artifact clots: 30 minutes after assay start, n=4. Here is the method:
The assay included the following steps: thawing of a frozen PFP sample, adding to it of a contact activation inhibitor and incubating the resulting mixture, sample recalcification and its placing into the measuring cuvette channel, bringing the sample into contact with the TF immobilized at the end of a special insert-activator, and detecting the appearance and growth of fibrin clots in the consequent photography mode. The frozen PFP sample was obtained preliminarily through collection of blood into sodium citrate-containing tubes from several (at least five) healthy donors and subsequent 2 stages of centrifugation and freezing of the prepared plasma at −80° C. During the assay arrangement, the fibrin clot was growing from the insert-activator; appearance of additional clots in the cuvette area far from the activator was also possible, as shown on FIG. 2. Clots in the cuvette area far from the activator can be due to the hypercoagulation state of the sample or to the artifacts of sample contact activation from the cuvette walls (artifact clots): the latter must be suppressed for the said test to allow distinguishing between the normal and hypercoagulation states of the coagulation system. To do that, before activating the sample through bringing it into contact with TF, an efficient quantity of the contact activation inhibitor was added into the sample: in this case, we used the polypeptide comprising the sequence of an infestin-4 mutant MutB. To compare the efficiency of the claimed polypeptide comprising the sequence of an infestin-4 mutant MutB with the contact activation inhibitor CTI known in the field, the said inhibitors were added into 2 separate samples of normal frozen PFP plasma. We used such concentrations of the inhibitors at which the APTT increases nearly four-fold: 20 μM in case of MutB and 15 μM in case of CTI. […] For each sample, 4 repeated measurements were performed. 30 minutes after the assay start, images of the fibrin clot in measuring cuvettes-4 cuvettes for each sample-were obtained: they are shown on FIG. 3.
The cuvette area occupied by artifact clots (in % from the total cuvette area; n=4) was plotted for 3 samples of normal frozen plasma at separate time points (FIG. 4, averaged values at each time point). Without adding the contact activation inhibitor, artifact clots appear in the cuvette area far from the activator nearly 15 minutes after activation and occupy the whole cuvette area after 30 minutes. However, after addition of CTI or MutB, such clots occupy not more than 15% of the cuvette area 30 minutes after activation. […]

The target of assay [2] is T1, fXIa (Homo sapiens, UniProt P03951).
T1 construct: factor XI into its active form, factor XIa (fXIa)
T1 sequence (P03951 388-625 limits assumed): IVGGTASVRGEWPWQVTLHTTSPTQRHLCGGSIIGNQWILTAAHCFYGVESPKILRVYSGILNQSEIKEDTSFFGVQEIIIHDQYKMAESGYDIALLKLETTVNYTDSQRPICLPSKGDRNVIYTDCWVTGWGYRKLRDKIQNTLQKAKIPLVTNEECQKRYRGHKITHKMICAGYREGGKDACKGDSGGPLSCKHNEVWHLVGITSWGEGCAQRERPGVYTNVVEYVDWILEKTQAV
T1 sequence (P03951 19-387 partner limits assumed): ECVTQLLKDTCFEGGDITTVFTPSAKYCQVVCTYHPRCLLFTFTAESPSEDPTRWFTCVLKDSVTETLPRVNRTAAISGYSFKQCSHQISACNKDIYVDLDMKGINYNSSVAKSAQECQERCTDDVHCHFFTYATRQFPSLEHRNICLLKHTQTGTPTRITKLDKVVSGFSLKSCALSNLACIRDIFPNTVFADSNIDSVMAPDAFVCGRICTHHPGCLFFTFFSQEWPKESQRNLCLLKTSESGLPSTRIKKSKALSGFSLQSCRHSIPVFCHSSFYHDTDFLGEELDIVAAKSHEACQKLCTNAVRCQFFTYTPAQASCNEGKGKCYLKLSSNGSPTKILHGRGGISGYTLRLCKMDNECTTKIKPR
Nature of the assay: Chromogenic test of protease inhibition in buffer, fXIa (substrate S-2366). It counts as biochemical. To be noted: buffer solution, summary of Table 2. Here is the method: In order to assess selectivity of the fXIIa inhibition by the polypeptide comprising the sequence of the infestin-4 mutant MutB, its inhibitory activity in buffer solution against the purified coagulation factors was determined. The polypeptide's activity was compared with the known fXIIa inhibitors: CTI, infestin-4, infestin-4-based mutant Mut15, LCTI-III. […] The standard deviation amounted to about 50% of the average value; each value was measured by performing 2-3 repeats.
To determine the inhibition activity of such proteins as MutB, CTI, Inf4, Mut15, and LCTI-III as related to different coagulation proteases in a buffer, the chromogenic test was used: the mixture of protease and inhibitor was incubated in the wells of the plate for 15 minutes at 37° C., after which the chromogenic substrate solution was added to the mixture, and the protease activity was measured as the rate of chromogenic product formation at 37° C.
Chromogenic substrates included a p-nitroanilide group cleaved by the corresponding proteases. After cleavage of the p-nitroanilide group from the substrate molecule, the group absorption spectrum changes, and the change of concentration of such product within time can be detected at the light wavelength of 405 nm using a plate spectrophotometer. To build a dependence curve of the protease activity from the inhibitor concentration, different inhibitor concentrations were added into several samples with the same protease concentration. After that, the inhibitor concentration able to decrease the protease activity by 50% (IC50) was determined. The inhibition constant Ki was calculated using the Cheng-Prusoff equation (Ki=IC50/(1+S/KM)), where S is the initial substrate concentration, KM is the Michaelis-Menten constant of the substrate to the protease.
Native infestin-4 and its mutants MutB and Mut15 used here were fusion proteins with thioredoxin I E. coli containing polyhisticline clusters. […]

In the case of “MutB: polypeptide comprising the sequence of infestin-4 mutant MutB (SEQ ID NO: 1), inhibition loop TRNFVA; high-selectivity fXIIa inhibitor (EVRNPCACTRNFVAVCGSDGKTYGNPCMLNCAAQTKVPGLKLVHEGRCQRSNVEQF; Infestin-4 mutant MutB)”, in assay [1], the “cuvette area occupied by artifact clots far from the activator” value was “not more than 15%” and the “suppression of contact activation, formation of artifact clots” value is recorded as “almost complete suppression”. Besides, the “inhibition of fXIa (in words)” value in assay [2] is reported as “do not inhibit”.

B1: corn trypsin inhibitor (other, UniProt P01088 29-138, looked up)
chain: SAGTSCVPGWAIPHNPLPSCRWYVTSRTCGIGPRLPWPELKRRCCRELADIPAYCRCTALSILMDGAIPPGPDAQLEGRLEDLPGCPREVQRGFAATLVTEAECNLATIS
notes: Isolated from corn; also called CTI
Turning to B1, in assay [1], the “cuvette area occupied by artifact clots far from the activator” value is “not more than 15%” and the “suppression of contact activation, formation of artifact clots” value was “almost complete suppression”. Also, the “inhibition of fXIa (in words)” value in assay [2] was “inhibits”.
